{
  "source": "patent US20240074473A1",
  "about": "“METHOD FOR INDUCING HYPERTROPHIC MUSCLE FIBERS FOR INDUSTRIAL MEAT PRODUCTION” (Yeda Research and Development Co. Ltd., priority 2021, published 2024)",
  "molecules": {"B1": {"name": "Bovine Transferrin: iron carrier of cell culture media (protein, UniProt Q29443 20-704, looked up)", "Serotransferrin": "DPERTVRWCTISTHEANKCASFRENVLRILESGPFVSCVKKTSHMDCIKAISNNEADAVTLDGGLVYEAGLKPNNLKPVVAEFHGTKDNPQTHYYAVAVVKKDTDFKLNELRGKKSCHTGLGRSAGWNIPMAKLYKELPDPQESIQRAAANFFSASCVPCADQSSFPKLCQLCAGKGTDKCACSNHEPYFGYSGAFKCLMEGAGDVAFVKHSTVFDNLPNPEDRKNYELLCGDNTRKSVDDYQECYLAMVPSHAVVARTVGGKEDVIWELLNHAQEHFGKDKPDNFQLFQSPHGKDLLFKDSADGFLKIPSKMDFELYLGYEYVTALQNLRESKPPDSSKDECMVKWCAIGHQERTKCDRWSGFSGGAIECETAENTEECIAKIMKGEADAMSLDGGYLYIAGKCGLVPVLAENYKTEGESCKNTPEKGYLAVAVVKTSDANINWNNLKDKKSCHTAVDRTAGWNIPMGLLYSKINNCKFDEFFSAGCAPGSPRNSSLCALCIGSEKGTGKECVPNSNERYYGYTGAFRCLVEKGDVAFVKDQTVIQNTDGNNNEAWAKNLKKENFEVLCKDGTRKPVTDAENCHLARGPNHAVVSRKDKATCVEKILNKQQDDFGKSVTDCTSNFCLFQSNSKDLLFRDDTKCLASIAKKTYDSYLGDDYVRAMTNLRQCSTSKLLEACTFHKP"}},
  "key": {"[1]": {"assay": "Risk categorization of cell culture media ingredients", "source_text": "Category 1: These cell culture media components are food ingredients/additives that are GRAS or permitted by federal regulation without limitation on use. Exemplary compounds in this category include innocuous ingredients such as sugars, pH buffers, water soluble vitamins, and common antioxidants such as tocopherols.\nCategory 2: These cell culture media components are common dietary nutrients and are anticipated to have GRAS status for food use or be permitted by regulation for addition to food. Examples of such compounds include most of the inorganic salts and macronutrients that are present within the cell culture media. […] Majority of nutrients present within the poultry cell-based meat may be readily measured using common validated methods for food composition testing. […]\nFor example, situations where the compound is not detectable in finished product or is present at equivalent levels in comparator foods, compounds that are thermo-labile and will be digested during cooking, and/or compounds that are expected to be digested to innocuous compounds following ingestion. […] For Category 3 substances a final consideration in the safety assessment process may involve hazard characterization of the potential for a substance to produce toxic biological effects outside of the endpoints measured in a sub-chronic rat toxicity study. […]"}, "[2]": {"assay": "Maximum estimated dietary exposure to media ingredients per 100 g serving", "details": "assumption of complete transfer of media components to the finished product on a wt/wt basis"}},
  "data": [
    {"molecule": "B1", "values": [
      {"measurement": "Risk Assessment Category", "setting": "[1]", "value": 3},
      {"measurement": "Maximum Estimated Exposure per 100 g serving", "setting": "[2]", "value": 150, "unit": "mg"}
    ]}
  ]
}
